In the test the target is CmMYB6_N3 (Chrysanthemum morifolium).
CmMYB6_N3 (Chrysanthemum morifolium), sequence (main, as listed by the source): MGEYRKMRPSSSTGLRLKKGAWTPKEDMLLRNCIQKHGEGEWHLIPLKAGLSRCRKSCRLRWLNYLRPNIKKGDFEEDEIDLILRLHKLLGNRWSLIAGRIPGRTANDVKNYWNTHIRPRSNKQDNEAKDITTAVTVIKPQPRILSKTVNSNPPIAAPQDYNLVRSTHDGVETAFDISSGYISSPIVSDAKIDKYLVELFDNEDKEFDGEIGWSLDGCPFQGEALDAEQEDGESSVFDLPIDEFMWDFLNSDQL

“CmbHLH2^Full_L (from UniProt A0A0S3J3I7 1-613) (natural protein)”: the GUS activity driven by the CmCHS promoter in tobacco leaves co-infiltrated with CmbHLH2^Full and full-length CmMYB6 (untagged effectors) was 5 fold; the GUS activity driven by the CmDFR promoter in tobacco leaves co-infiltrated with CmbHLH2^Full and full-length CmMYB6 (untagged effectors) was determined as 26 fold.

(Values after publication PMC8222801.)
